According to article PMC3830487, “A DELLA gene, RhGAI1, is a direct target of EIN3 and mediates ethylene-regulated rose petal cell expansion via repressing the expression of RhCesA2”:

Legend:
[1] = molecular target: T1, RhEIN3-3 (N-terminal fragment with DNA-binding domain) (rose, UniProt M9XFM8 141-356); assay: EMSA; competed by unlabelled probe; EMSA per Wang et al. 2011, LightShift chemiluminescent kit (Pierce); 1 ug recombinant protein, 2 nM biotin-labelled probe; buffer, salt, pH and temperature not; details: tags: GST (pGEX-2T), chain copies: 2, label: biotin, blunt
T1 sequence: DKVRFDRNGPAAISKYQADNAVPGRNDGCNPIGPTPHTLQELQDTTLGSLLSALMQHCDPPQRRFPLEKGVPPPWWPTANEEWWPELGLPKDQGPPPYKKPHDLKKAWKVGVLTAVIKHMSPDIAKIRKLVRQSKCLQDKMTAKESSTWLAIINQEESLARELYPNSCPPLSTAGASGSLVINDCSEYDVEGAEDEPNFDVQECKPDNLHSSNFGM

[2] = molecular target: T1, RhEIN3-3 (N-terminal fragment with …); assay: competition; mutated competitor vs biotin-labelled N1; EMSA per Wang et al. 2011, LightShift chemiluminescent kit (Pierce); 1 ug recombinant protein, 2 nM biotin-labelled probe; buffer, salt, pH and temperature not; details: tags: GST (pGEX-2T), chain copies: 2
[3] = molecular target: T2, RhGAI1 (C-terminal fragment with binding domain) (rose, UniProt M9XGL2 238-618); assay: EMSA; competed by unlabelled probe; EMSA per Wang et al. 2011, LightShift chemiluminescent kit (Pierce); 1 ug recombinant protein, 2 nM biotin-labelled probe; buffer, salt, pH and temperature not; details: tags: GST (pGEX-2T), label: biotin, blunt
T2 sequence: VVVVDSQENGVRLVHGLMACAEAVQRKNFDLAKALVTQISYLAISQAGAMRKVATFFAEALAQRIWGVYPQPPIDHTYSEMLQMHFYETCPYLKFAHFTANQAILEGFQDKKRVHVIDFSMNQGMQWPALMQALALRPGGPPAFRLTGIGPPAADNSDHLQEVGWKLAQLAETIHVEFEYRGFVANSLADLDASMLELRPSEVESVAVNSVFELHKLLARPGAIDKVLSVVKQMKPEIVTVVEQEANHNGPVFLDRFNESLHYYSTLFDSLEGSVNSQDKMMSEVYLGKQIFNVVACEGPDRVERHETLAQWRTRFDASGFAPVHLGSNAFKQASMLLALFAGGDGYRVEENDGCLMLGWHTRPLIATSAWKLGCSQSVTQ

[4] = molecular target: T2, RhGAI1 (C-terminal fragment with …); assay: competition; mutated competitor vs biotin-labelled N3; EMSA per Wang et al. 2011, LightShift chemiluminescent kit (Pierce); 1 ug recombinant protein, 2 nM biotin-labelled probe; buffer, salt, pH and temperature not; details: tags: GST (pGEX-2T)

B1: proRhGAI1 probe (dsDNA)
DNA 1: CGTTTTATACTAATTCAAAGGTATTAA
DNA 2: TTAATACCTTTGAATTAGTATAAAACG
binding result [1]: binds

B2: proRhGAI1 mutated probe (dsDNA)
DNA 1: CAGTCACGTTTTATACTCAGTAAGAGGTATTAAAATTCTAGAG
DNA 2: CTCTAGAATTTTAATACCTCTTACTGAGTATAAAACGTGACTG
binding result [2]: no binding

B3: proRhCesA2 probe (dsDNA)
DNA 1: GCAGAGGGCTAATTTAGTCGGTGGAGAT
DNA 2: ATCTCCACCGACTAAATTAGCCCTCTGC
binding result [3]: binds

B4: proRhCesA2 mutated probe (dsDNA)
DNA 1: GCAGAGGGCTGACTCAGTCGGTGGAGATTT
DNA 2: AAATCTCCACCGACTGAGTCAGCCCTCTGC
binding result [4]: no binding
